Laboratory results taken from publication PMC7835275.

Columns and labels:
[1] = molecular target: His-tagged DVB1, full length, from E. coli (rice (Oryza sativa L.)); test: native gel or EMSA; Native-PAGE of the purified His-tagged protein, immunoblot with a His-tag antibody; SDS-PAGE beside it
[2] = molecular target: His-tagged DVB1^G90E, full length, from E. coli (rice (Oryza sativa L.)); test: as above

Substance	stoichiometry N [1]	stoichiometry N [2]
His-tagged DVB1, full length, from E. coli (natural protein)	2	–
His-tagged DVB1^G90E, full length, from E. coli (natural protein)	–	2
